Laboratory results as given in article PMC9482650, “Quantitative fragmentomics allow affinity mapping of interactomes” (Nature Communications, 2022).

Experiments:
Assay in all cases: holdup assay
Set-up in all cases: key: below the threshold = too weak to quantify, mostly under pKd 3.1 to 4
[1] = molecular target: MAGI2_2, Q86UL8
[2] = molecular target: T1, LNX2_3, Q8N448
T1 sequence (Q8N448 463-564, limits assumed, looked up): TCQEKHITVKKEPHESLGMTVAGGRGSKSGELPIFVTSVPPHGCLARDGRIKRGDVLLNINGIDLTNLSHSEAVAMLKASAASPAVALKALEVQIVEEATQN

[3] = molecular target: Inadl_5, Q8NI35
Chain of Inadl_5, Q8NI35 (Q8NI35 673-780): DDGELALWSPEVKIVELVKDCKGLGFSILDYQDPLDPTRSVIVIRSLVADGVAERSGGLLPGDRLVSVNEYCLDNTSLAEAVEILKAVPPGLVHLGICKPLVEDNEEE

[4] = molecular target: T2, DFNB31_1, Q9P202
T2 sequence (Q9P202 135-233, limits assumed, looked up): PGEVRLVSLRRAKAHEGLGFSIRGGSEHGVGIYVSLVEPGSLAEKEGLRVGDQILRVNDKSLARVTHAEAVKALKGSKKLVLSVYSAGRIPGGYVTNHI

[5] = molecular target: GIPC2, Q8TF65
Chain of GIPC2, Q8TF65 (Q8TF65 112-203): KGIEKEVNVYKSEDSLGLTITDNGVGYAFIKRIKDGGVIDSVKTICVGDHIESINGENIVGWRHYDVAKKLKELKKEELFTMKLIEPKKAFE

[6] = molecular target: FRMPD3, Q5JV73
Chain of FRMPD3, Q5JV73 (Q5JV73 12-100): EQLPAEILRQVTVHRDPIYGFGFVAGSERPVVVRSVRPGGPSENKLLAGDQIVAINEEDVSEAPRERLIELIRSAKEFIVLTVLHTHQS

[7] = molecular target: T3, GRIP1_3, Q9Y3R0
T3 sequence (Q9Y3R0 247-346, limits assumed, looked up): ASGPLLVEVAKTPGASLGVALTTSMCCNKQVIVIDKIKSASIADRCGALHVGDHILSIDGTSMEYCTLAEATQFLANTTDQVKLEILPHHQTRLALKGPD

[8] = molecular target: TJP2_1, Q9UDY2
Chain of TJP2_1, Q9UDY2 (Q9UDY2 24-128): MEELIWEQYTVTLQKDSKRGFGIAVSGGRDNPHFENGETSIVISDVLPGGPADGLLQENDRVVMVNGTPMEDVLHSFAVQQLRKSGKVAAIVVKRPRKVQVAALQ

[9] = molecular target: T4, TJP3_3, O95049
T4 sequence (O95049 375-456, limits assumed, looked up): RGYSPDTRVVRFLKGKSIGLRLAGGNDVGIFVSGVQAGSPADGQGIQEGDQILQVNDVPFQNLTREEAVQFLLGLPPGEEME

[10] = molecular target: T5, SIPA1L2, Q9P2F8
T5 sequence (Q9P2F8 945-1036, limits assumed, looked up): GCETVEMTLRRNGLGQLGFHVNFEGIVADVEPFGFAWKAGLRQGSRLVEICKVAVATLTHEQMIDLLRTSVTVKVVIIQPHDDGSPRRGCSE

[11] = molecular target: T6, LIN7C, Q9NUP9
T6 sequence (Q9NUP9 88-185, limits assumed, looked up): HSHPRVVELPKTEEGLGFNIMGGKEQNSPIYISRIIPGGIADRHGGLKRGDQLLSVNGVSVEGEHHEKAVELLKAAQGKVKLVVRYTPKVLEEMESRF

[12] = molecular target: MAGI2_4, Q86UL8
Chain of MAGI2_4, Q86UL8 (Q86UL8 772-865): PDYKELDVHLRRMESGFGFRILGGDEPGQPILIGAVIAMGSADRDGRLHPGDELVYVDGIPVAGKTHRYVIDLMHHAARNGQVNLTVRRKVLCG

[13] = molecular target: MAST1, Q9Y2H9
Chain of MAST1, Q9Y2H9 (Q9Y2H9 962-1065): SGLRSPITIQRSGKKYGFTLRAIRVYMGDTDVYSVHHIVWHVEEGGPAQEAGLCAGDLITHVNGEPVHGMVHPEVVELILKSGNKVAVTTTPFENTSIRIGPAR

[14] = molecular target: T7, RADIL, Q96JH8
T7 sequence (Q96JH8 971-1071, limits assumed, looked up): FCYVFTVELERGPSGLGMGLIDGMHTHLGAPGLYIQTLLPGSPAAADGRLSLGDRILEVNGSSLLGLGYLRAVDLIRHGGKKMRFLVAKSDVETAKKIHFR

[15] = molecular target: T8, SNTG2, Q9NY99
T8 sequence (Q9NY99 68-166, limits assumed, looked up): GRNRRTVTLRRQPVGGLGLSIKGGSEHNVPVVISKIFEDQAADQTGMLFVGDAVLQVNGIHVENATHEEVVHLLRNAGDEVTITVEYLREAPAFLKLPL

[16] = molecular target: CASK, O14936
Chain of CASK, O14936 (O14936 487-570): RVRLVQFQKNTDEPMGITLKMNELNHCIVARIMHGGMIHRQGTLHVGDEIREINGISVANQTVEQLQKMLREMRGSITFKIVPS

[17] = molecular target: T9, PARD3B_1, Q8TEW8
T9 sequence (Q8TEW8 196-299, limits assumed, looked up): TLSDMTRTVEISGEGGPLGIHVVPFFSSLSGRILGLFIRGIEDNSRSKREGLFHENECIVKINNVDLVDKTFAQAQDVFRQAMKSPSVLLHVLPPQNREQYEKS

[18] = molecular target: T10, ARHGEF11, O15085
T10 sequence (O15085 42-136, limits assumed, looked up): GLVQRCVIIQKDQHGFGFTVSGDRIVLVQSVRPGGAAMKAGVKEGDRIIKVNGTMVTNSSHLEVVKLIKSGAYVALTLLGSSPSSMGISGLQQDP

[19] = molecular target: MAGI1_2, Q96QZ7
Chain of MAGI1_2, Q96QZ7 (Q96QZ7 456-580): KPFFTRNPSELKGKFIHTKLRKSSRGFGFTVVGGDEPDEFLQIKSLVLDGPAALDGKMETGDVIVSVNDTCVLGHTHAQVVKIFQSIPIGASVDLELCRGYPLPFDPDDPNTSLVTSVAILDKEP

[20] = molecular target: DLG1_2, Q12959
Chain of DLG1_2, Q12959 (Q12959 314-412): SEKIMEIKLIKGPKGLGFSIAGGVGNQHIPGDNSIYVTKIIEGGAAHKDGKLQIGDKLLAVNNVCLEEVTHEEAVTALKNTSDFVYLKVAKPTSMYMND

[21] = molecular target: GRIP2_7, Q9C0E4
Chain of GRIP2_7, Q9C0E4 (Q9C0E4 934-1023): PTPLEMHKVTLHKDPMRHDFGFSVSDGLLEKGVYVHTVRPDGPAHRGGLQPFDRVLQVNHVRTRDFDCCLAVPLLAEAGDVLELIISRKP

[22] = molecular target: DLG5_1, Q8TDM6
Chain of DLG5_1, Q8TDM6 (Q8TDM6 617-713): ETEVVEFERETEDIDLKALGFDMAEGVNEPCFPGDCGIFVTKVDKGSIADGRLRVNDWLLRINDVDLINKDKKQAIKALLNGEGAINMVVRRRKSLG

[23] = molecular target: TJP1_2, Q07157
Chain of TJP1_2, Q07157 (Q07157 181-274): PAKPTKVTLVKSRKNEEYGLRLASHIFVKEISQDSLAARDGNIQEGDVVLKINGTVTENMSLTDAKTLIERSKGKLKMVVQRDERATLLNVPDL

[24] = molecular target: T11, DFNB31_2, Q9P202
T11 sequence (Q9P202 274-371, limits assumed, looked up): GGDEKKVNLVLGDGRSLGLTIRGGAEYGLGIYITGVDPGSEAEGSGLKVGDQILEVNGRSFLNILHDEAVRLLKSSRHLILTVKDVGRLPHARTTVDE

[25] = molecular target: FRMPD2_1, Q68DX3
Chain of FRMPD2_1, Q68DX3 (Q68DX3 770-861): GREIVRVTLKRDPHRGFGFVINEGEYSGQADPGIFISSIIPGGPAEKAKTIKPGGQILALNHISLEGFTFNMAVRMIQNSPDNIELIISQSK

[26] = molecular target: T12, MPP2, Q14168
T12 sequence (Q14168 180-250, limits assumed, looked up): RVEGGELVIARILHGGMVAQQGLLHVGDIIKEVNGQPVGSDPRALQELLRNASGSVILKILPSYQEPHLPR

[27] = modified: phospho on T at position -2 from the C-terminal residue
[28] = plain residues with an end cap or a label only (N-terminal biotin on a linker: ado-ado)

Chain of MAGI2_2, Q86UL8 (Q86UL8 410-522): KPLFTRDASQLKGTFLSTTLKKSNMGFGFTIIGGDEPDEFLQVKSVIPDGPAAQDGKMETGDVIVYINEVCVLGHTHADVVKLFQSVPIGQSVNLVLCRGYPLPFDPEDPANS

B1: HPV16-E6_-2P, P03126 (peptide)
chain: SSRTRRETQL
[1]; [27]
  pKd: below the threshold
[2]; [27]
  pKd: below the threshold
[3]; [27]
  pKd: below the threshold
[4]; [27]
  pKd: below the threshold
[5]; [27]
  pKd: below the threshold
[6]; [27]
  pKd: below the threshold
[7]; [27]
  pKd: below the threshold
[8]; [27]
  pKd: below the threshold
[9]; [27]
  pKd: below the threshold
[10]; [27]
  pKd: below the threshold
[11]; [27]
  pKd: 3.94
[12]; [27]
  pKd: below the threshold
[13]; [27]
  pKd: below the threshold
[14]; [27]
  pKd: below the threshold
[15]; [27]
  pKd: below the threshold
[16]; [27]
  pKd: below the threshold
[17]; [27]
  pKd: below the threshold
[18]; [27]
  pKd: below the threshold
[19]; [27]
  pKd: below the threshold
[20]; [27]
  pKd: below the threshold
[21]; [27]
  pKd: below the threshold
[22]; [27]
  pKd: below the threshold
[23]; [27]
  pKd: below the threshold
[24]; [27]
  pKd: below the threshold
[25]; [27]
  pKd: below the threshold
[26]; [27]
  pKd: below the threshold

B2: SCN8A, Q9UQD0 (peptide)
chain: RQKEVRESKC
[1]; [28]
  pKd: 4.02
[2]; [28]
  pKd: below the threshold
[3]; [28]
  pKd: below the threshold
[4]; [28]
  pKd: 4.1
[5]; [28]
  pKd: 4.05
[6]; [28]
  pKd: below the threshold
[7]; [28]
  pKd: below the threshold
[8]; [28]
  pKd: below the threshold
[9]; [28]
  pKd: below the threshold
[10]; [28]
  pKd: below the threshold
[11]; [28]
  pKd: 3.84
[12]; [28]
  pKd: below the threshold
[13]; [28]
  pKd: 4.34
[14]; [28]
  pKd: below the threshold
[15]; [28]
  pKd: 4.58
[16]; [28]
  pKd: below the threshold
[17]; [28]
  pKd: below the threshold
[18]; [28]
  pKd: below the threshold
[19]; [28]
  pKd: 3.67
[20]; [28]
  pKd: 3.55
[21]; [28]
  pKd: below the threshold
[22]; [28]
  pKd: below the threshold
[23]; [28]
  pKd: below the threshold
[24]; [28]
  pKd: 4.37
[25]; [28]
  pKd: below the threshold
[26]; [28]
  pKd: below the threshold

B3: CACNA1A, O00555 (peptide)
chain: PYSESDDDWC
[1]; [28]
  pKd: below the threshold
[2]; [28]
  pKd: below the threshold
[3]; [28]
  pKd: below the threshold
[4]; [28]
  pKd: below the threshold
[5]; [28]
  pKd: below the threshold
[6]; [28]
  pKd: 3.48
[7]; [28]
  pKd: below the threshold
[8]; [28]
  pKd: 3.64
[9]; [28]
  pKd: 4.39
[10]; [28]
  pKd: below the threshold
[11]; [28]
  pKd: below the threshold
[12]; [28]
  pKd: below the threshold
[13]; [28]
  pKd: below the threshold
[14]; [28]
  pKd: below the threshold
[15]; [28]
  pKd: below the threshold
[16]; [28]
  pKd: 3.53
[17]; [28]
  pKd: 3.61
[18]; [28]
  pKd: 3.51
[19]; [28]
  pKd: below the threshold
[20]; [28]
  pKd: below the threshold
[21]; [28]
  pKd: below the threshold
[22]; [28]
  pKd: below the threshold
[23]; [28]
  pKd: below the threshold
[24]; [28]
  pKd: below the threshold
[25]; [28]
  pKd: below the threshold
[26]; [28]
  pKd: below the threshold

B4: TRPV6, Q9H1D0 (peptide)
chain: EDGESWEYQI
[1]; [28]
  pKd: below the threshold
[2]; [28]
  pKd: below the threshold
[3]; [28]
  pKd: below the threshold
[4]; [28]
  pKd: below the threshold
[5]; [28]
  pKd: below the threshold
[6]; [28]
  pKd: below the threshold
[7]; [28]
  pKd: below the threshold
[8]; [28]
  pKd: below the threshold
[9]; [28]
  pKd: below the threshold
[10]; [28]
  pKd: below the threshold
[11]; [28]
  pKd: 3.72
[12]; [28]
  pKd: below the threshold
[13]; [28]
  pKd: 4.28
[14]; [28]
  pKd: 3.69
[15]; [28]
  pKd: below the threshold
[16]; [28]
  pKd: below the threshold
[17]; [28]
  pKd: 3.85
[18]; [28]
  pKd: 3.63
[19]; [28]
  pKd: below the threshold
[20]; [28]
  pKd: below the threshold
[21]; [28]
  pKd: 3.61
[22]; [28]
  pKd: below the threshold
[23]; [28]
  pKd: 3.56
[24]; [28]
  pKd: below the threshold
[25]; [28]
  pKd: below the threshold
[26]; [28]
  pKd: 3.57

B5: GPR12, P47775 (peptide)
chain: AQRARSPSDV
[1]; [28]
  pKd: 3.65
[2]; [28]
  pKd: below the threshold
[3]; [28]
  pKd: 3.85
[4]; [28]
  pKd: below the threshold
[5]; [28]
  pKd: below the threshold
[6]; [28]
  pKd: below the threshold
[7]; [28]
  pKd: below the threshold
[8]; [28]
  pKd: below the threshold
[9]; [28]
  pKd: below the threshold
[10]; [28]
  pKd: below the threshold
[11]; [28]
  pKd: below the threshold
[12]; [28]
  pKd: below the threshold
[13]; [28]
  pKd: below the threshold
[14]; [28]
  pKd: below the threshold
[15]; [28]
  pKd: below the threshold
[16]; [28]
  pKd: below the threshold
[17]; [28]
  pKd: below the threshold
[18]; [28]
  pKd: below the threshold
[19]; [28]
  pKd: below the threshold
[20]; [28]
  pKd: 3.75
[21]; [28]
  pKd: below the threshold
[22]; [28]
  pKd: below the threshold
[23]; [28]
  pKd: below the threshold
[24]; [28]
  pKd: below the threshold
[25]; [28]
  pKd: below the threshold
[26]; [28]
  pKd: below the threshold
